Results on two proteins are retold here after US20220306702.

The target in data set [1] is GST-TAB2 protein substrate [GST: P08515].
In data set [2] the target is 64 other human C4 ZF containing proteins.

B1: NLeE from Shigella (Shigella NleE) (protein)
chain: GSMRKKRRQRRRSIEIKMISPIKNIKNVFPINTANTEYIVRNIYPRVEHGYFNESPNIYDKKYISGITRSMAQLKIEEFINEKSRRLNYMKTMYSPCPEDFQPISRDEASTPEGSWLTVISGKRPMGQFSVDSLYHPDLHALCELPEISCKIFPKENSDFLYIIVVFRNDSPQGELRANRFIELYDIKREIMQVLRDESPELKSIKSEIIIAREMGELFSYASEEIDSYIKQMNDRLSQIKARMPVTGSRS
Consider B1, for which the “methylase activity (MTase glo assay)” value in data set [1] is listed as “the Shigella NleE showed methylase activity at levels comparable to that seen for the EPEC NleE”.

B2: wild-type NleE (EPEC NleE) (protein)
chain: MINPVTNTQGVSPINTKYAEHVVKNIYPEIKHDYFNESPNIYDKKYISGITRGVAELKQEEFVNEKARRFSYMKTMYSVCPEAFEPISRNEASTPEGSWLTVISGKRPMGQFSVDSLYNPDLHALCELPDICCKIFPKENNDFLYIVVVYRNDSPLGEQRANRFIELYNIKRDIMQELNYELPELKAVKSEMIIAREMGEIFSYMPGEIDSYMKYINNKLSKIE
Consider B2, for which the “modification by NleE (cysteine methylation assay)” value in data set [2] is given as “But few of them were modified by NleE”.
